The text below walks through data of paper PMC8424595 (The Journal of Biological Chemistry, 2021).

Assay [1] addresses T1, Msi3 (Candida albicans, UniProt Q96VB9).
T1 sequence (Q96VB9 1-701): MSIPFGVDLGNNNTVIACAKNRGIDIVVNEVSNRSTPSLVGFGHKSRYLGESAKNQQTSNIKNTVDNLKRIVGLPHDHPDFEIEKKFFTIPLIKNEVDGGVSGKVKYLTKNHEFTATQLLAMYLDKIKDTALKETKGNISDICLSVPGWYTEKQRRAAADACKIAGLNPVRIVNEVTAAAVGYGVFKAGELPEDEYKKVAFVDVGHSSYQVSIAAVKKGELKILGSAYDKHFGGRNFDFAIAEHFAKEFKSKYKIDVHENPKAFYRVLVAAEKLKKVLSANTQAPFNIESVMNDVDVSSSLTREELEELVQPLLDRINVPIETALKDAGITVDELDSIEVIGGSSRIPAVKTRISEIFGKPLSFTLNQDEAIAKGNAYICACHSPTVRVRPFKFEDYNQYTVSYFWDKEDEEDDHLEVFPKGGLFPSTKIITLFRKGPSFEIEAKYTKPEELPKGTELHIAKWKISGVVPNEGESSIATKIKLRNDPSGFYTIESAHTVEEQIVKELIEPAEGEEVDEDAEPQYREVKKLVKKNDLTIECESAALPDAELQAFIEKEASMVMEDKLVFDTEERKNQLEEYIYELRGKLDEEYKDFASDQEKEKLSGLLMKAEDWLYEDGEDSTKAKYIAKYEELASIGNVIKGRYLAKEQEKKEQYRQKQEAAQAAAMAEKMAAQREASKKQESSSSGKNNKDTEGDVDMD
In words: limited trypsin digest. It is filed as binding. The note with it: 1 mM ATP, pH 7.5, 10 mM Mg(OAc)2, 25 °C.

The target of assay [2] is Ssa1 (Saccharomyces cerevisiae, UniProt P10591). Kind of assay: fluorescence polarization, displacement of ATP-FAM. It is filed as binding. The note with it: 50 uM ATP, 1 uM Ssa1, 20 nM ATP-FAM, pH 7.5, 25 °C.
Sequence of Ssa1 (P10591 2-642): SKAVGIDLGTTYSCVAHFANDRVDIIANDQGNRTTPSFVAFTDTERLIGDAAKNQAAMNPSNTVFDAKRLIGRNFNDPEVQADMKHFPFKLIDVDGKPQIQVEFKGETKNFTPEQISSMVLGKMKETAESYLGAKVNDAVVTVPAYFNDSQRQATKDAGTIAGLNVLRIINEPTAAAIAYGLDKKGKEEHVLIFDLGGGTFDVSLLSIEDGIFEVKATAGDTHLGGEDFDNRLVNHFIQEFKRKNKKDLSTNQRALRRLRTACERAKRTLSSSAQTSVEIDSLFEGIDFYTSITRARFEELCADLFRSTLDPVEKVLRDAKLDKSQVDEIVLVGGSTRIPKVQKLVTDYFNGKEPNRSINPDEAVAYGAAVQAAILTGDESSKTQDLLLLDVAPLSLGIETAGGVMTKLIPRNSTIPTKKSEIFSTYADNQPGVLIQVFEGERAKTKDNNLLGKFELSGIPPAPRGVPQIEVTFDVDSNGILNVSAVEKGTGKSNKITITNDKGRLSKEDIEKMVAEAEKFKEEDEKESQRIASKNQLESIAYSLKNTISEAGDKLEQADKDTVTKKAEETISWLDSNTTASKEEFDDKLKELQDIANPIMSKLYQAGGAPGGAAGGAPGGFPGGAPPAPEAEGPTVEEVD
Assay [3] concerns the target Msi3-Ssa1 complex (Candida albicans | S. cerevisiae, UniProt Q96VB9 1-701; P10591 1-642). In words: native gel or EMSA.
Assay [4] addresses Ssa1, the major Hsp70 in the cytosol of S. cerevisiae (S. cerevisiae, UniProt P10591 1-642). In words: native gel or EMSA.
The target in assay [5] is T2, Msi3, the sole Hsp110 in Candida albicans, wild type (Candida albicans, UniProt Q96VB9 1-701).
T2 sequence (looked up): T1 sequence (Q96VB9 1-701)
Kind of assay: fluorescence polarisation.

Assay [6] has as its target T3, Msi3 R235E (Candida albicans, UniProt Q96VB9 1-701, R235E).
T3 sequence (looked up): T1 sequence (Q96VB9 1-701) with R235E
Kind of assay: fluorescence polarisation.

Assay [7] addresses T4, Msi3 I164D (Candida albicans, UniProt Q96VB9 1-701, I164D).
T4 sequence (looked up): T1 sequence (Q96VB9 1-701) with I164D
Kind of assay: fluorescence polarisation.

Residue numbers refer to the chain shown, from its start. Where no end group is shown, it is not given here. fluorescein = fluorescein label at the N-terminus

Sequence of Ssa1, the major Hsp70 in the cytosol of S. cerevisiae (P10591 whole entry): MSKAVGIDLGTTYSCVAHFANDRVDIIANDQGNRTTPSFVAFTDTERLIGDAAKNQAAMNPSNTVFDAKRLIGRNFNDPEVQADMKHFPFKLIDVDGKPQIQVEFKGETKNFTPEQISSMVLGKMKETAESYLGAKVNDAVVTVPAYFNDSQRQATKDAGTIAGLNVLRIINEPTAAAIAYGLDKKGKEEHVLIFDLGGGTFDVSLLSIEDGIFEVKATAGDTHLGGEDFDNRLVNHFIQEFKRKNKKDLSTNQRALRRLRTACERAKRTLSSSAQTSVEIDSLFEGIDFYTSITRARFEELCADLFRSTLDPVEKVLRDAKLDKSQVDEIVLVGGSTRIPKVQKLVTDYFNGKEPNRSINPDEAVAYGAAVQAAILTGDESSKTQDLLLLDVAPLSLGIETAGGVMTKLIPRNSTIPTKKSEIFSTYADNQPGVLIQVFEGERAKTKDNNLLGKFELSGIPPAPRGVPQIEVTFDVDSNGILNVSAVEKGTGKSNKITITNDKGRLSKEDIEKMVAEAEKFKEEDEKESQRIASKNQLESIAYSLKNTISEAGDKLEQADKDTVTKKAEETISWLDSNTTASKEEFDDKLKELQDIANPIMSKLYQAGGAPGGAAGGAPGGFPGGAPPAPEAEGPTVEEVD
Sequence of Msi3-Ssa1 complex (P10591 whole entry, one chain of several): as the sequence (P10591 whole entry) above

For the molecule `Nc1ncnc2c1ncn2[C@@H]1O[C@H](COP(=O)(O)OP(=O)(O)OP(=O)(O)O)[C@@H](O)[C@H]1O` [ATP], the “limited trypsin digest (ATP-induced conformational change)” value in assay [1] is reported as “two signature proteolytic bands were observed in the presence of ATP for the WT Msi3”. The “fluorescence polarization, displacement of ATP-FAM” value in assay [2] is reported as “the bound ATP-FAM was slowly replaced by the unlabeled ATP”.

As to fluorescein-NRLLLTG [NR peptide], the binding result in assay [3] and in assay [4] was “binds” in each case.

For the molecule fluorescein-VYDFFVWLHYY [TRP2_181 peptide], the binding result in assay [5], in assay [6] and in assay [7] was “binds” in each case.
